Entries after “also recorded” stand apart in the source; their conditions may differ.
Experiments:
Bcl-2 mRNA in PC12 cells = experiment: RT-PCR of Bcl-2 gene transcripts in PC12 cells; format: cell-based, rat
Description: Total RNA was extracted from PC12 cells by the acid guanidinum isothiocyanate method (Chomchinski, P., et al., Biotechniques 15: 532-535 (1993)) using TRI-reagent (Molecular Research Center, Inc.). cDNA synthesis was performed according to the instruction of the manufacturer (Gibco-BRL). Reverse transcription reactions were carried out for 50 minutes at 42° C. and were heated to 70° C. for 15 minutes to terminate the reaction using a MiniCycler (MJ Research). Samples were cooled to 4° C. and stored at −20° C. until use.
PCR reactions were performed in 50 μl containing 1.5 μl of template DNA (corresponding to cDNA synthesized from 100 ng of total RNA), 1×PCR buffer, 100 μM of deoxynucleotides, 2.5 mM MgCl2, 10 mM DTT, 10 pM of Bcl-2 primers, and 2 U of Taq DNA polymerase (Gibco-BRL). The synthetic DNA primers for the rat Bcl-2 were: 5′-[…]-3′ (SEQ ID NO:8) and 5′-[…]-3′(SEQ ID NO:9) to give a PCR product of 566 bp. The sequences for synthetic GAPDH DNA primers (Wong, H., et al., Anal. Biochem. 223: 251-258 (1994)) were: 5′-[…]-3′ (SEQ ID NO:10) and 5′-[…]-3′ (SEQ ID NO:11) giving a PCR produce of 306 base pairs. Amplifications were carried out in MiniCycler (MJ Research) using following conditions: 98° C. for 5 minutes (initial heat denaturation), 3 cycles of 94° C. for 1 minute, 63° C. for 1 minute, 72° C. for 1.5 minutes; 3 cycles of 94° C. for 1 minutes, 60° C. for 1 minute, 72° C. for 1.5 minutes, followed by 72° C. for 10 minutes. Primers for GAPDH (10 pM) were added at cycle 7 by the “primer-dropping” method. Aliquots of PCR reaction products were separated by electrophoresis in 2% agarose gels (Ultrapure, Gibco-BRL), containing 0.2 μg/ml ethidium bromide. Gels were analyzed by computerized densitometric scanning using Gel doc 1000 (Bio Rad) and Molecular Analyst Software, version 2.1.

normal human neutrophils = experiment: IL-6 production by normal human neutrophils; format: cell-based
PC12 cells = experiment: Neurite outgrowth assay in PC12 cells; format: cell-based, rat
From the text: PC12 cells were obtained from ATCC (Manassas, Va. (Accession No. CRL-1721)) and cultured on collagen-coated dishes in RPMI 1640 supplemented with 10% horse serum and 5% fetal bovine serum (Greene, L. A. and Tishler, A. S., Proc. Natl. Acad. Sci. USA, 73: 2424-2428 (1976)). For differentiation and survival experiments, cells were washed three times in serum-free RPMI/0.2% BSA, plated in the same medium in collagen-coated plastic dishes at 2×10^5/ml, without and with growth factors, TS, recombinant proteins, synthetic peptides, for the time and concentrations indicated in the Figures.
96-well microtiter plates were coated overnight at 4° C. with the TS or peptides or fragments thereof, or with control proteins laminin (Ln) or bovine serum albumin (BSA) at 500 μg/ml. After removing the compounds, the plates were further incubated with 1% BSA for 1 hour at room temperature and immediately used as substratum for PC12 or N18 (Prasad, K. N., Biol Rev Camb Philos Soc, 66:431-451 (1991)) cells in serum-free RPMI/0.2% BSA. Neurite outgrowth was measured using a phase-contrast microscope 17 hours later.

[1] = tested on: peripheral blood mononuclear cells (PBMC); experiment: IL-6 secretion by PBMC (ELISA); format: cell-based, human; parameters: IL-6 secretion by PBMC: dose or concentration left out as unconfirmed
Description: Primary cultures of human intestinal microvascular endothelial cells (HIMEC) isolated from normal jejunal mucosa/submucosal tissue were prepared as described (Strong et al., Gastroenterology 114: 1244-1256 (1998)). The HIMEC were cultured in fibronectin-coated plasticware in MCDB medium (Sigma) supplemented with 20% FBS, 90 μg/ml heparin and 50 μg/ml endothelial cell growth factor (Sigma). T-24 cells (ATCC Accession No. HTB-4) were cultured in M199 medium supplemented with 10% FBS. PBMC were purified by Ficoll-Paque gradient as described (Current Protocols in Immunology, pp 7.1.1-7.1.2). Vero cells (ATCC Accession No. CCL-81) were grown in RPMI medium with 5% Nu serum and infected with the Silvio X-10/4 of T. cruzi as described previously (Chuenkova et al., J. Exp. Med. 181: 1693-1703, (1995)).
Endothelial cells and T-24 cells were plated on 24-well plates at a density of 1×10^3 cells/well, while peripheral blood mononuclear cells (PBMC) were plated in the similar wells at 1×10^6/well. Triplicat cultures of cells were incubated test agents for a predetermined amount of time. […] Cytokines and chemokines released in the culture supernatants were measured by ELISA assay following the instructions of the manufacturer (Endogen). The cytokines tested were IL-1β, IL-4, IL-8, IL-10, IL-12, IFN-γ, TNF-α, and the chemokines RANTES and MCP-1. Negative controls were cells incubated in medium containing polymixin B at 10 μg/ml, and positive controls were cells incubated with bacterial LPS at the low ng/ml range (for PBMC or HIMEC) or in the μg/ml range for carcinoma T-24 cells. In some experiments, IL-1β, or TNFα were used as positive control for cytokine release.
TR peptides (Table 2) were synthesized at the Tufts Synthesis Facility (Boston, Mass.). Each peptide was purified by HPLC, and the number of amino acids and molecular weight of each peptide verified by mass spectrometry. Peptides were dissolved in growth medium (10% FCS in RPMI) and added at various concentrations to 1×10^6 PBMC/well in 24-well plates. After 24 hrs, IL-6 was assayed by ELISA in the conditioned supernatants.

B1: TS: T. cruzi trans-sialidase purified by immuno-affinity chromatography from supernatants of infected Vero cells (SEQ ID NO:2, SEQ ID NO:34) (protein, listed as Trypanosoma cruzi)
chain: MVAIADARYETSSENSLIDTVAKYSVDDGETWETQIAIKNSRVSSVSRVVDPTVIVKGNKLYVLVGSYYSSRSYWSSHGDARDWDILLAVGEVTKSTAGGKITASIKWGSPVSLKKFFPAEMEGMHTNQFLGGAGVAIVASNGNLVYPVQVTNKRKQVFSKIFYSEDDGKTWKFGKGRSDFGCSEPVALEWEGKLIINTRVDWKRRLVYESSDMEKPWVEAVGTVSRVWGPSPKSNQPGSQTSFTAVTIEGMRVMLFTHPLNFKGRCVRDRLNLWLTDNQRIYNVGQVSIGDENSAYSSVLYKDDKLYCLHEINTDEVYSLVFARLVGELRIIKSVLRSWKNWTATCPAFAPLLIQPLRRQRVVVVPLSPRLVLLAFCRQRLPKRMGGSYRCVNASTANAERVRNGLKFAGVGGGALWPVSQQGQNQRYRFANHAFTLVASVTIHEAPRAASPLLGASLDSSGGKKLLGLSYDEKHQWQPIYGSTPVTPTGSWETGKRYHLVLTMANKIGSVYIDGELLEGSGQTVVPDGRTPDISHFYVGGYKRSDMPTISHVTVNNVLLYNRRQLNTEEIRTLFLSQDLIGTEAHMDSSSDSSAHSTPSTPADSSAHSTPSTPVDSSAHSTPSTPADSSAHGTPSTPVDSSAHGTPSTPADSSAHGTPSTPVDSSAHSTPSTPVDSSAHSTPSTPVDSSAHGAPSTPADSSAHGTPSTPVDSSAHGTPSTPADSSAHSTPSTPADSSAHSTPSTPADSSAHSTPSTPVDSSAHGTPSTPADSSAHSTPSTPADSSAHGTPSTPVDSSAHSTPSTPVDSSAHGTPSTPVDSSAHSTPSTPVDSSAHGTPSTPVDSSAHSTPSTPADSSAHSTPSTPADSSAHGTPSTPVDSSAHSTPSTPADSSAHSTPSTPVDSSAHSTPSTPADSSAHGTPSTPVDSSAHGTPSTPADSSAHSTPSTPADSSAHSTPSTPADSSAHSTPSTPVDSSAHSTPSTPADSSAHSTPSTPADSSAHSTPSTPADSSAHSTPSTPVDSSAHSTPSTPADSSAHGTPSTPADSSAHSTPSTPVDSSAHSTPSTPADSSAHGTPSTPADSSAHSTPSTPADSSAHGTPSTPADSSAHSTPSTPAGSSANGTVLILPDGAALSTFSGGGLLLCACALLLHVFFMAVF
- bcl-2 gene expression in PC12 cells (Bcl-2 mRNA in PC12 cells; TS 2.5 ng/ml, CNTF 50 ng/ml, alone or combined, 17 hours): did not induce bcl-2 gene expression individually
- expression of Bcl-2 mRNA in PC12 cells (Bcl-2 mRNA in PC12 cells; TS 100 and 200 ng/ml, 17 hours serum-free): dramatically increased Bcl-2 mRNA; also recorded: induces the expression of Bcl-2 mRNA
- IL-6 production by normal human neutrophils (normal human neutrophils): did not produce detectable IL-6
- concentration range at which TS was active in neurite extension (PC12 cells): 0.125 nM
- time PC12 neurites remained extended (PC12 cells; after a single dose of TS): about 24 hours
- time until PC12 neurites became visible (PC12 cells; after a single dose of TS): 3 h
- neurite outgrowth in PC12 cells (PC12 cells; neurite outgrowth assay, concentration not given): induced neurite outgrowth
- neurite outgrowth in PC12 cells (PC12 cells; soluble in serum-free RPMI-1640/0.2% BSA, collagen coated dishes, 16 hours, NGF 0.1 μg/ml, VCNA 2.4 μg/ml, TS 1 μg/ml): induces neurite outgrowth
- IL-6 secretion by PBMC ([1]; 24 hrs culture): potently and specifically induced IL-6 secretion; also recorded: stimulated IL-6 release
- stimulation time for maximum IL-6 secretion in PBMC ([1]; TS 1 μg/ml): 24 h

Reference: patent US8114412B2, “T. cruzi-derived neurotrophic agents and methods of use therefor” (priority 1999, dated 2012)
